Legend:
Int^C-mCitrine-hFis1 = assay: protein trans-splicing
Int^C-mCitrine-Tom7 = assay: protein trans-splicing

Tom20-mCherry-Int^N
percent of Tom20-FP1 spliced to the partner (Int^C-mCitrine-hFis1): 50%
percent of Tom20-FP1 spliced to the partner (Int^C-mCitrine-Tom7): 30%
